The test deals with Notch receptor (Drosophila) (UniProt P07207). Nature of the test: competitive cell aggregation assay.
Chain of UniProt P07207 (P07207 53-2703): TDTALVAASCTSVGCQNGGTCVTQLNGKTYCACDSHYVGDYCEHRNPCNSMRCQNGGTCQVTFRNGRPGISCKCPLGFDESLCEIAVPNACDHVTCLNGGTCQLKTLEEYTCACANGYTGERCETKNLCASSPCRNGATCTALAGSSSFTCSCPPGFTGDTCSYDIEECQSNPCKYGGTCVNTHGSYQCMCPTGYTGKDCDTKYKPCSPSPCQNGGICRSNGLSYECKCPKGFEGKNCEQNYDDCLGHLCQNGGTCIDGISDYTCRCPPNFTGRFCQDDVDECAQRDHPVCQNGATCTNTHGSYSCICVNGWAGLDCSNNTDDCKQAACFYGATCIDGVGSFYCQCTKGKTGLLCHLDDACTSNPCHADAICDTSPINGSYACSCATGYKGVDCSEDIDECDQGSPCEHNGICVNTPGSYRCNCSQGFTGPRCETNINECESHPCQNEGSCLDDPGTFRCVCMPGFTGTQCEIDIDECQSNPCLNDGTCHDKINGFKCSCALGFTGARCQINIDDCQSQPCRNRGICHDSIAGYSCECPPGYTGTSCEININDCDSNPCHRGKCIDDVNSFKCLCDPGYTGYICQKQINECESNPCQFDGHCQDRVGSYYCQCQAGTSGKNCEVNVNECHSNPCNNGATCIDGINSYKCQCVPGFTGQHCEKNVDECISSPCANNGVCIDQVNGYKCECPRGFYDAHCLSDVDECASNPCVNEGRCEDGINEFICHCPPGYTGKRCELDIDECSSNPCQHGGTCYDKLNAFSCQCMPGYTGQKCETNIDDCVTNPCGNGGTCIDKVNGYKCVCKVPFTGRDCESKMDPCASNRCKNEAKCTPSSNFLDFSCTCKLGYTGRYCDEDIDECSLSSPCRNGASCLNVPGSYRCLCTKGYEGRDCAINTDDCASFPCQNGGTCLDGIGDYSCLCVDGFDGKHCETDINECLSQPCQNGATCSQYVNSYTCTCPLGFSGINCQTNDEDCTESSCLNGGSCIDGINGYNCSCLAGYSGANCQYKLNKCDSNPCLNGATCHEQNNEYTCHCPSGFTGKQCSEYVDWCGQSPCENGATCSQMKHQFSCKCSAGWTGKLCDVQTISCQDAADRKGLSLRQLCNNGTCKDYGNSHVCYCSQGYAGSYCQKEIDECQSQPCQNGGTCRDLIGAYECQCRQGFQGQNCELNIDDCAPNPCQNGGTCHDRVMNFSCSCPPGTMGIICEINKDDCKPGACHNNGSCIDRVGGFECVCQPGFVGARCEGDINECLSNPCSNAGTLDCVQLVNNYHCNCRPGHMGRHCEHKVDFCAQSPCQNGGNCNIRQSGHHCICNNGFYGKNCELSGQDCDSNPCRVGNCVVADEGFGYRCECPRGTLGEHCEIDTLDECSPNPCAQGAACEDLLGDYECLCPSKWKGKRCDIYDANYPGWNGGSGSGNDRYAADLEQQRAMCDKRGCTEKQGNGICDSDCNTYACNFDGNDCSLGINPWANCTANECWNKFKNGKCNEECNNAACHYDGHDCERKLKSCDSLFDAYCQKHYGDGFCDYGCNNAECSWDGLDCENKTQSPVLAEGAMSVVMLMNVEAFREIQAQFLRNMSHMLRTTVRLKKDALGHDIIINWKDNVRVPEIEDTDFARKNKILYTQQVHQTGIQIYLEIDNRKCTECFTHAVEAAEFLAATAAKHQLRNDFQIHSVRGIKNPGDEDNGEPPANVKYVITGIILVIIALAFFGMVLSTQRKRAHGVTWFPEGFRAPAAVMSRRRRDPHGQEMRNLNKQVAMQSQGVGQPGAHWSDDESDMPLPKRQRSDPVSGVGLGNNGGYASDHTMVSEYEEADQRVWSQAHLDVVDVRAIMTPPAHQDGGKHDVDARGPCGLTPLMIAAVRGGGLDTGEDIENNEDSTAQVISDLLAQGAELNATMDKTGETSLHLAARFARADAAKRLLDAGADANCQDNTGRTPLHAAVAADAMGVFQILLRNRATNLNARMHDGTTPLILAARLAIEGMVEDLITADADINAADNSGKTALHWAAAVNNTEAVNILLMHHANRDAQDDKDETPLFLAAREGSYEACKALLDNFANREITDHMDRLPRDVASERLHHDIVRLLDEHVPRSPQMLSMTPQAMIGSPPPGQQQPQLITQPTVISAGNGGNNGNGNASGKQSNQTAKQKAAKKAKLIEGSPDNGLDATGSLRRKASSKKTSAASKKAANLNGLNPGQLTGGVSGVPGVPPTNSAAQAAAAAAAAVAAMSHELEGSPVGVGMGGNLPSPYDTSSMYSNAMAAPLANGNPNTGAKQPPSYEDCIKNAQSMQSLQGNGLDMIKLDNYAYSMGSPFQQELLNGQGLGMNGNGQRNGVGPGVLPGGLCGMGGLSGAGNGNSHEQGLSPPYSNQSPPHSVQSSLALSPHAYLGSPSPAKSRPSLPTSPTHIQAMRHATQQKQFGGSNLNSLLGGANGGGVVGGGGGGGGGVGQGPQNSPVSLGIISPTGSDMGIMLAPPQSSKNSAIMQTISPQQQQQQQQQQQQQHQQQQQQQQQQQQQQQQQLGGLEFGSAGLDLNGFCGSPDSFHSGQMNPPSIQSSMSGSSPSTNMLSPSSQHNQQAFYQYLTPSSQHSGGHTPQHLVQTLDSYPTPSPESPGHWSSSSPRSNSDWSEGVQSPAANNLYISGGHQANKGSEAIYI

On to “DlEC, extracellular fragment of Delta released by cleavage (from UniProt P10041 19-581) (domain or fragment)”, for which the percent inhibition of aggregation at >0.5 μM DlEC was under 20%.
